Measured values as given in patent US8986655B2, “Compositions, devices, and methods related to prostate-specific membrane antigen” (The Regents of the University of California, priority 2009, dated 2015).

Legend:
[1] = molecular target: PSMA (Homo sapiens, UniProt Q04609); conditions: phage-displayed ELISAs, QCM, EIS; as reported previously; cited from earlier work
[2] = molecular target: homodimeric PSMA (Homo sapiens, UniProt Q04609); experiment: Phage-based ELISA, binding to PSMA dimer; conditions: for binding to PSMA dimer: phage-displayed peptide, 1 μg/mL PSMA dimer, ELISA (FIG. 5); for relative binding affinity to PSMA compared with parent peptide 2: 1 μg/mL homodimeric PSMA, half of the binding time (FIG. 1A)
Sequence of homodimeric PSMA (Q04609 whole entry): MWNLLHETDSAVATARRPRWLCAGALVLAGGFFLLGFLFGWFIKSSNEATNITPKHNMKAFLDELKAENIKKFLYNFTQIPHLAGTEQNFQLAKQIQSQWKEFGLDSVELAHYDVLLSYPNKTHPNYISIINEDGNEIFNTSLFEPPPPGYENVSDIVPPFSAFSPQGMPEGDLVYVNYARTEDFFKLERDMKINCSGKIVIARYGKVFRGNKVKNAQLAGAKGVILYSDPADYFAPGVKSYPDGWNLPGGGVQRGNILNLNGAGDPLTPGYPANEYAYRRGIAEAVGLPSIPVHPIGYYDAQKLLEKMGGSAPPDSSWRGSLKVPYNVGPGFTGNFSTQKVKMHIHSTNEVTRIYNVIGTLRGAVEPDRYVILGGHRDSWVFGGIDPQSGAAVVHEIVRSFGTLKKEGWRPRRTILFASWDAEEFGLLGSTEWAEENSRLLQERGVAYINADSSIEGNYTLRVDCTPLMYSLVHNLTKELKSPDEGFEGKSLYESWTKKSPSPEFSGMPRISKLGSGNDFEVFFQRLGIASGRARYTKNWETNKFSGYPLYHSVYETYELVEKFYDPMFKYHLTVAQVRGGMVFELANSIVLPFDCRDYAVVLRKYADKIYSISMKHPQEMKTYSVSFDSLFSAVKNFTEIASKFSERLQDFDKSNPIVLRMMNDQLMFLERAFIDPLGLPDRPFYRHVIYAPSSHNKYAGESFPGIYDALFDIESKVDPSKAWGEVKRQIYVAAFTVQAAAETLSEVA
Description: (§1) An eight residue long peptide with the amino acid sequence […] [SEQ ID NO: 1], was previously identified as a PSMA binder from an 8-mer (X8) library. […] (also referred to as peptide 1 in the Figures) to PSMA as reported previously. In addition to […] [SEQ ID NO: 1], the inventors also examined a longer 13-mer peptide, selected from a disulfide-constrained library with the amino acid sequence […] [SEQ ID NO: 3] (also referred to as peptide 2 in the Figures).
The five peptides [SEQ ID NOs: 4-8] […] These peptides were assayed for binding to 1 μg/mL of homodimeric PSMA, a concentration 10-fold less than the parent peptide required for binding assays. This higher stringency can better distinguish very high from moderate affinity binders. […] FIG. 1A illustrated peptides selected from homolog shotgun scanning library. FIG. 1B illustrates relative affinity of selected peptide 3 [SEQ ID NO: 4] versus the previous highest affinity peptide 1 [SEQ ID NO: 2]. FIG. 1C illustrates a bar graph showing that 20 nM phage displaying peptide 1 [SEQ ID NO: 2] has binding affinity similar to that of 0.2 nM phage displaying peptide 3 [SEQ ID NO: 4], and 20 nM phage displaying parent peptide 2 [SEQ ID NO: 3] has binding affinity similar to 0.02 nM phage displaying peptide 3 [SEQ ID NO: 4].
A phage-based ELISA was performed using purified peptide 10 to determine whether the peptide enhances the binding to immobilized PSMA. […] Here, the graph illustrates results for the phage displaying peptide 3 [SEQ ID NO.4], wrapped with peptide 10 binding 1 μg/mL PSMA dimer

[3] = molecular target: PSMA monomer (Homo sapiens, UniProt Q04609); experiment: Phage-displayed ELISA, binding to PSMA monomer; conditions: phage-displayed peptide, 1 μg/mL PSMA monomer, ELISA (FIG. 5)
Sequence of PSMA monomer (Q04609 whole entry): as above
Description: as §1

[4] = molecular target: transferrin receptor (TfR) (Homo sapiens, UniProt P02786); experiment: Cross-reactivity for binding transferrin receptor; conditions: homolog of PSMA (54% sequence identical)
Sequence of transferrin receptor (TfR) (P02786 whole entry, species assumed): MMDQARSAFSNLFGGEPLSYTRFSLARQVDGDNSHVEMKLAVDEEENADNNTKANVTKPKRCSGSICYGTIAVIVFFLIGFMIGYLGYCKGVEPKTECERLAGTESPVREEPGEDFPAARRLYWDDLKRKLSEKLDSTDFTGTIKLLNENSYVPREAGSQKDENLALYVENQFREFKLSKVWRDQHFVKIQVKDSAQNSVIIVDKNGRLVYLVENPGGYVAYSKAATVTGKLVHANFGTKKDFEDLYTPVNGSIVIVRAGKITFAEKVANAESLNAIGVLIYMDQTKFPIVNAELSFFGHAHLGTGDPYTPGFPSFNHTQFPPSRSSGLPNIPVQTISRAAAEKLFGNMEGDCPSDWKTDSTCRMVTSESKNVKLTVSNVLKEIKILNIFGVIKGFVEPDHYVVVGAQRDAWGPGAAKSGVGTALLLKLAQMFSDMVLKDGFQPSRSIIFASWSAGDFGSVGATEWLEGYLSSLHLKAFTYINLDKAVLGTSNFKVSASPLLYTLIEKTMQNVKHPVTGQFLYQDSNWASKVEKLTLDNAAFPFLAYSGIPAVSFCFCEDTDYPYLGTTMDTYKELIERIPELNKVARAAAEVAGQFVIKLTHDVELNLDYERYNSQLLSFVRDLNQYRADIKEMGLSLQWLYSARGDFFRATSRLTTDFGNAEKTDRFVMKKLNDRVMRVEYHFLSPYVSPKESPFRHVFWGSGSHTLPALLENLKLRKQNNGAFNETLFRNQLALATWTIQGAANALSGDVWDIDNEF
Description: It should be noted that the two substitutions incorporated in the sequence of peptide 3 [SEQ ID NO: 4] were L1S and D2E. The serine substitution removes a hydrophobic leucine residue, which provides the peptide with a more polar side chain, which can accept and donate hydrogen bonds (H-bonds). The hydroxyl group likely improves the surface complementarity at the binding interface with PSMA by creating new H-bonding contacts with the protein backbone, or by participating in an extended H-bonding network directly or indirectly through water to other side chains at the binding site. The selection of Glu in place of Asp merely extends the side chain length by one carbon unit. This substitution maintains contribution of the carboxylate functionality, and the length extension of 1.5 Å could allow for new H-bonding or salt-bridging opportunities. Clearly, the core sequence of the selected peptides is critical for the molecular recognition of PSMA, and this core remained conserved in the tightest binding peptides.

[5] = phage-based ELISA with 20 nM phage, phage concentration versus HRP activity (FIGS. 1B, 1C)

Sequence of PSMA (Q04609 whole entry): as the sequence (Q04609 whole entry) above

CALCEFLG (Synthetic oligopeptiide) [peptide 1, reference compound]
binding to PSMA [1]: strong binding | apparent affinity for dimeric PSMA relative to the monomeric isoform ([2]; phage-displayed ELISA, dimer versus monomer): exceeds affinity for the monomeric isoform | binding to PSMA dimer [2]: efficient binding | binding to PSMA dimer ([2]; listed as Peptide 1): higher affinity to PSMA dimer than peptide 2 | binding to PSMA monomer [3]: efficient binding

LDCVEVFQNSCDW [peptide 2, 13-mer peptide selected from a disulfide-constrained library; parent of the homolog library]
binding to PSMA dimer [2]: only binds to dimeric PSMA | binding to PSMA monomer [3]: fails to bind the monomer with significant affinity | binding to PSMA monomer ([3]; listed as Peptide 2): does not bind PSMA monomer with appreciable affinity

SDCVEVFQNSCDW [compound 4, peptide from the homolog shotgun scanning library]
relative binding affinity to PSMA compared with parent peptide 2 [2]: higher affinity towards the target

SECVEVFQNSCDW [peptide 3, peptide from the homolog shotgun scanning library]
relative binding affinity to PSMA compared with parent peptide 2 [2]: higher affinity towards the target | phage concentration with binding affinity similar to 20 nM phage displaying parent peptide 2 ([2]; PSMA 1 μg/mL (FIG. 1C)): 0.02 nM | phage concentration with binding affinity similar to 20 nM phage displaying peptide 1 ([2]; PSMA 1 μg/mL (FIG. 1C)): 0.2 nM | fold higher affinity for PSMA compared to parent peptide 2 [2, 5]: ≈ 1000 times | fold higher affinity for PSMA than peptide 1 [2, 5]: ≈ 100 times | cross-reactivity for binding transferrin receptor (TfR) [4]: no detectable cross-reactivity
